These results are taken from patent US20250325630A1, “HOMODIMER FUSION PROTEINS FOR TREATING ATOPIC DERMATITIS” (Intervet Inc., priority 2021, published 2025).

Residue numbers refer to the chain shown, from its start. Numbers in names are those of the source.

In one experiment the target is T1, canine IL-13 (cIL-13) (Canis lupus familiaris, UniProt Q9N0W9).
T1 sequence (Q9N0W9 19-131): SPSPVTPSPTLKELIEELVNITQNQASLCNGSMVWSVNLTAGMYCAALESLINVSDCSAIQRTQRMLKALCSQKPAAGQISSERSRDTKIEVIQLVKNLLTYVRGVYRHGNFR
Briefly: Binding kinetics of cFc fusion proteins to canine IL-13 (OCTET HTX). The following applies: for ka / kdis: Table 4, cIL-13; for ka: association rate constant; for kdis: dissociation rate constant. On the procedure:
(§1) The binding constants for the cFc fusion proteins provided in Tables 3 and 4 below, were determined using OCTET® HTX. All kinetics measurements were performed by OCTET® HTX using SA® biosensors and DATA ACQUISITION® 12.0 software. 10 μg/mL of biotin-labeled antigen, either canine IL-4 (cIL-4) or canine IL-13 (cIL-13) were loaded onto the SAR biosensors for 120 seconds. Next, the biosensors were placed into 1×pH 7.0 TBS/Casein buffer for 60 seconds for the blocking phase. For the association phase, antigen loaded biosensors were placed into 2-fold serial dilutions from 1 μM down to 15.6 nM of the wild-type, the bispecific, or the FcRn-mutant receptor Fc-fusions that recognized the cIL-4 or cIL-13 antigen in 1×pH 7.0 TBS/Casein buffer for 30 seconds. The last well was buffer alone and that sensor was used for reference sensor subtraction. Finally, the biosensors were placed into 1×pH 7.0 TBS/Casein buffer for 120 seconds for the dissociation phase. The results were then analyzed using Data Analysis 12.0 software and the curves were fitted using a 1:1 binding model.

Experiment [1] deals with cIL-13 mediated STAT6 phosphorylation. Briefly: Inhibition of cIL-13 mediated STAT6 phosphorylation in DH82 cells (AlphaLISA p-STAT6). Type of experiment: cell-based, canine. The following applies: DH82 cells. On the procedure: The ability of the cFc fusion proteins to block the signaling mediated by IL-4 and IL-13, as measured by inhibition of STAT-6 phosphorylation in DH82 cells, were determined as follows:
• 1. Actively growing DH82 cells: Merck Animal Health Lot: 628-011, 24Oct14 • 2. HBSS, 1×: Corning, Catalog 21-022-CM • 3. AlphaLISA p-STAT6 (Tyr641) Assay Kit: Perkin Elmer, Catalog ALSU-PST6-A10K • 4. Recombinant canine IL-4: R&D Systems, Catalog: 752-CL/CF • 5a. cFc fusion protein samples for IL-4 studies • (i) cIL4Rα-cFc • (ii) cIL4Rα-IL13Rα1 ZW1-cFc • (iii) cIL4Rα-IL13Rα2 ZW1-cFc • 5b. cFc fusion protein samples for IL-13 studies: • (i) CIL13Rα1-cFc • (ii) cIL13Rα2-cFc • (iii) cIL4R-IL13Rα1 ZW1-cFc • (iv) cIL4R-IL13Rα2 ZW1-cFc • 6. Perkin Elmer® Envision
• 1. Tissue culture plates were seeded with […] DH82 cells per well (40 μL with the density of 2.5×10^5 cells/mL) and incubated at 37° C. for 2 hours. • 2. The cFc fusion proteins were pre-diluted to 2000 nM (500 nM final concentration in the well) and then 3-fold serially diluted in Hank's Balanced Salt Solution (HBSS). The proteins were added by transferring 20 μL/well to the respective locations on the tissue culture plates containing DH82 cells. • 3. (a) Canine IL-4 was diluted to 10 ng/ml in HBSS (2.5 ng/ml in the well) and 20 μL was added to each well of the plates. The plates were incubated for 15 min at 37° C.; or alternatively • (b) Canine IL-13 was diluted to 20 ng/ml in HBSS (5 ng/ml in the well) and 20 μL was added to each well of the plates. The plates were incubated for 15 min at 37° C. • 4. The plates were removed from the incubator and 20 μL of 4× Lysis buffer from the AlphaLISA® p-STAT-6 Assay Kit was added to each well of the plate. The plate was agitated on a plate shaker with 350 rpm for 10 minutes at room temperature. • 5. The Acceptor Mix was prepared from the AlphaLISA® p-STAT6 Assay Kit and 15 μL per well was added to 30 μL of the cell lysate in 96-well ½ Area Plates. The plates were sealed, agitated for 2 minutes at 350 rpm, and then incubated for 1 hour at room temperature. • 6. The Donor Mix was prepared from the AlphaLISA® p-STAT6 Assay kit under subdued laboratory lighting and 15 μL per well was added to each plate. The plates were sealed, covered with foil, agitated for 2 minutes at 350 rpm, and then incubated for 1 hour at room temperature. • 7. The plates were read using the AlphaScreen settings on the Perkin Elmer® En Vison.

In another experiment the target is T2, canine IL-4 (cIL-4) (Canis lupus familiaris, UniProt O77762).
T2 sequence (O77762 25-132): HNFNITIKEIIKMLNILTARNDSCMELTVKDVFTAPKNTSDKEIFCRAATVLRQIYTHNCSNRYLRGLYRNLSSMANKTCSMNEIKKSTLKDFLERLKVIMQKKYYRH
Briefly: Binding kinetics of cFc fusion proteins to canine IL-4 (OCTET HTX). The following applies: for ka / kdis: Table 3, cIL-4, ND = Binding Not Detected; for ka: association rate constant; for kdis: dissociation rate constant; for Kd: approximate values, read-out: binding constant (KD) with cIL-4. As to the method: as §1

B1: cIL-13Rα1-cFc-YTE: cIL-13Rα1-cIgGB-Fc with L18Y/A20T/T22E half-life substitutions, SEQ ID NO: 9 (protein)
chain: GGVAAPTETQPPVTNLSVSVENLCTVIWTWDPPEGASPNCTLRYFSHFDNKQDKKIAPETHRSKEVPLNERICLQVGSQCSTNESDNPSILVEKCTPPPEGDPESAVTELQCVWHNLSYMKCTWLPGRNTSPDTNYTLYYWHSSLGKILQCEDIYREGQHIGCSFALTNLKDSSFEQHSVQIVVKDNAGKIRPSFNIVPLTSHVKPDPPHIKRLFFQNGNLYVQWKNPQNFYSRCLSYQVEVNNSQTETNDIFYVEEAKCQNSEFEGNLEGTICFMVPGVLPDTLNTVRIRVRTNKLCYEDDKLWSNWSQAMSIGENTDPTPKRENGRVPRPPDCPKCPAPEMLGGPSVFIFPPKPKDTLYITREPEVTCVVVDLDPEDPEVQISWFVDGKQMQTAKTQPREEQFNGTYRVVSVLPIGHQDWLKGKQFTCKVNNKALPSPIERTISKARGQAHQPSVYVLPPSREELSKNTVSLTCLIKDFFPPDIDVEWQSNGQQEPESKYRTTPPQLDEDGSYFLYSKLSVDKSRWQRGDTFICAVMHEALHNHYTQESLSHSPGK
modifications: homodimer
As for B1, in the experiment with canine IL-13 (cIL-13), the “decrease in the affinity for cIL-13 relative to unmodified cIL-13Rα1-cFc” value is listed as “about 4 fold”, the ka turned out to be 66500 M⁻¹ s⁻¹ and the kdis came out at 0.0011 s⁻¹. The Kd with canine IL-13 (cIL-13) (approximate values, read-out: binding constant (KD) with cIL-13) turned out to be 20 nM.

B2: cIL-13Rα1-cFc: homodimer of canine IL-13Rα1 ECD, IgGB hinge region and IgGB cFc fusion protein, SEQ ID NO: 6 (protein)
chain: B1 chain with Y361L, T363A, E365T
modifications: homodimer
For B2, the “concentration inhibiting 50% of the cIL-13 mediated STAT6 phosphorylation (in words)” value in experiment [1] is on record as “well above nanomolar concentrations”. In the experiment with canine IL-13 (cIL-13), this molecule showed a ka of 58000 M⁻¹ s⁻¹ and a kdis of 0.000312 s⁻¹.

B3: cIL-13Rα2-cFc-YD: cIL-13Rα2-cIgGB-Fc with L18Y/T22D half-life substitutions, SEQ ID NO: 13 (protein)
chain: SMLSNAEIKVNPPQDFEIVDPGYLGYLSLQWQPPLFPDNFKECTIEYELKYRNIDSENWKTIITKNLHYKDGFDLNKGIEAKINTLLPAQCTNGSEVRSSWAETTYWTSPQGNRETKIQDMDCVYYNWQYLVCSWKPGMGVHFDTNYQLFYWYEGLDHSAECTDYIKVNGKNMGCRFPYLESSDYKDFYICVNGSSESQPIRPSYFIFQLQNIVKPMPPDYLSLTVKNSEEINLKWNMPKGPIPAKCFIYEIEFTEDGTTWVTTTVENEIQITRTSNESQKLCFLVRSKVNIYCSDDGIWSEWSDEQCWKGDIWKETPKRENGRVPRPPDCPKCPAPEMLGGPSVFIFPPKPKDTLYIARDPEVTCVVVDLDPEDPEVQISWFVDGKQMQTAKTQPREEQFNGTYRVVSVLPIGHQDWLKGKQFTCKVNNKALPSPIERTISKARGQAHQPSVYVLPPSREELSKNTVSLTCLIKDFFPPDIDVEWQSNGQQEPESKYRTTPPQLDEDGSYFLYSKLSVDKSRWQRGDTFICAVMHEALHNHYTQESLSHSPGK
modifications: homodimer
With B3, in the experiment with canine IL-13 (cIL-13), the ka is 1.15e+06 M⁻¹ s⁻¹ and the kdis came out at 5.07e-07 s⁻¹.

B4: cIL-13Rα2-cFc: homodimer of canine IL-13Rα2 ECD, IgGB hinge region and IgGB cFc fusion protein, SEQ ID NO: 7 (protein)
chain: B3 chain with Y357L, D361T
modifications: homodimer
In the experiment with canine IL-13 (cIL-13), B4 registered a ka of 1e+06 M⁻¹ s⁻¹ and a kdis of 7.45e-07 s⁻¹.

B5: cIL-13Rα2-cFc-YTE: cIL-13Rα2-cIgGB-Fc with L18Y/A20T/T22E half-life substitutions, SEQ ID NO: 10 (protein)
chain: B3 chain with A359T, D361E
modifications: homodimer
Regarding B5, in the experiment with canine IL-13 (cIL-13), the ka is 1.17e+06 M⁻¹ s⁻¹ and the kdis came to 5.04e-07 s⁻¹.

B6: cIL-4Rα-cFc-H: cIL-4Rα-cIgGB-Fc with N202H half-life substitution, SEQ ID NO: 11 (protein)
chain: VKVLHEPSCFSDYISTSVCQWKMDHPTNCSAELRLSYQLDFMGSENHTCVPENREDSVCVCSMPIDDAVEADVYQLDLWAGQQLLWSGSFQPSKHVKPRTPGNLTVHPNISHTWLLMWTNPYPTENHLHSELTYMVNVSNDNDPEDFKVYNVTYMGPTLRLAASTLKSGASYSARVRAWAQTYNSTWSDWSPSTTWLNYYEPWEQHLPPKRENGRVPRPPDCPKCPAPEMLGGPSVFIFPPKPKDTLLIARTPEVTCVVVDLDPEDPEVQISWFVDGKQMQTAKTQPREEQFNGTYRVVSVLPIGHQDWLKGKQFTCKVNNKALPSPIERTISKARGQAHQPSVYVLPPSREELSKNTVSLTCLIKDFFPPDIDVEWQSNGQQEPESKYRTTPPQLDEDGSYFLYSKLSVDKSRWQRGDTFICAVMHEALHHHYTQESLSHSPGK
modifications: homodimer
Turning to B6, in the experiment with canine IL-4 (cIL-4), the “loss in affinity for cIL-4 (KD times higher) relative to unmodified cIL-4Rα-cFc homodimer” value is on record as “about 10 fold”, the ka is 785000 M⁻¹ s⁻¹, the kdis amounted to 9.88e-05 s⁻¹ and the Kd is 0.1 nM.

B7: cIL-4Rα-cFc-YTE: cIL-4Rα-cIgGB-Fc with L18Y/A20T/T22E half-life substitutions, SEQ ID NO: 8 (protein)
chain: B6 chain with L248Y, A250T, T252E, H432N
modifications: homodimer
Take B7: in the experiment with canine IL-4 (cIL-4), the “loss in affinity for cIL-4 (KD times higher) relative to unmodified cIL-4Rα-cFc homodimer” value is listed as around 100 fold, the ka came to 830000 M⁻¹ s⁻¹, the kdis is 9.23e-06 s⁻¹ and the Kd was 0.01 nM.

B8: cIL-4Rα-cFc: homodimer of canine IL-4Rα ECD, IgGB hinge region and IgGB cFc fusion protein, SEQ ID NO: 5 (protein)
chain: B6 chain with H432N
modifications: homodimer
In the experiment with canine IL-4 (cIL-4), B8 returned a ka of 703000 M⁻¹ s⁻¹ and a kdis of 8.3e-07 s⁻¹.
